# Reference: the DeepSol protein solubility set
# Assay: soluble on expression in E. coli; label from the status in PepcDB or PDB records
row,Sequence,soluble on expression in E. coli
1,MSLKNIEKELENLRTIFRSIGLIKFKPYFSYMGLFKDDTMFGLYKEKCLYLRKSDQYLQEIKDTIPIHFLSDHKISRQSKIFYLVPQHIIENISSYSHWITSSISEYQRLRSKIRTENQTKIRILLNMNINIERLLARVNINTVDEFKQVGETKAFVRLIQQGFEVNQLLLFKLYGALQHKYIYMLSLEEKKRLLEQADSALYDAGLRKRFTVEGHHHHHH,soluble
2,MGSDKIHHHHHHMIRSLWIAKTGLDAQQTQMDVISNNLANVSTNGFKRGRAVFEDLMYQNIRQPGALSSDQTTLPSGLQLGTGVRPVATERIHTQGNPQQTGNSKDVAIIGQGFFQVAMPDGTTAYTRDGSFQVDQNGQLVTSSGFVIQPAITIPANTTSMTVARDGTVSVTQPGSSNNVQVGQLQLATFMNPAGLESMGENLYVQTDASGAPNTTVPGLNGAGVLQQNYVEASNVNVVEELVSMIQTQRAYEINSKAVQTSDQMLQRLTQMG,not soluble
3,MAASLWMGDLEPYMDENFISRAFATMGETVMSVKIIRNRLTGIPAGYCFVEFADLATAEKCLHKINGKPLPGATPAKRFKLNYATY,soluble
4,MRLPILIINFKAYGEAAGKRAVELAKAAERAARELGVNIVVAPNHLELGLVSQSVDIPVYAQGADVEAGGAHTAHVSLENIKEAGGSGVILNHSEAPLKLNDLARLVAKAKSLGLDVVVCAPDPRTSLAAAALGPHAVAVEPPELIGTGRAVSRYKPEAIVETVGLVSRHFPEVSVITGAGIESGDDVAAALRLGTRGVLLASAAVKAKDPYAKIVELAKPLSELR,soluble
5,MGSDKIHHHHHHMSQPLLSLPIDVLNIISKAMPTTLFQQLATQCTEVSFLNTGISNVNIKLSCEDGDKVLRVNQPHSNWCDRSLEVECWQAAIVANIAPVLIWVSDDKQVYLSEFIHQPETDWSIFASMRSHLSLGQSTNQSISAVDAVPLLSALFCKLSTLPVPNKSITVTEQWQQYAYQLDSLTESQIDPQWHDAWQQLLRLNGLVRHWLSQLEACVLLPTFCHRDLTPHNLLLSGRAPHQLFCIDYEYAVASHPLFDLASVVASHKLSTIQVNQLIDNVIMQYCQAASLTDVAAAKAALPAAINCFWLFSAMWALLMAAKEPQKVTQYLQYFTYYLTLITC,not soluble
6,GPGSMVHSYGYKSGTRHLFAKKFRKHGAPSVSTILTNIKVGDYVDVVADSAVREGMPHKYYHGRTGIVWNVTPRGVGVIINKPVRTRTLRKRICVRFEHVRKSRCQEAFKAKEHQFQAYLAAKKAGKALPPLQKSSRLGGIVRPKTVEVLARRVADYEAMVPY,not soluble
7,QVKEVQIRFEKDALHNIMEMQYKNYQLSKENIDMVNQKYHDLKHQINILKTQSYTGKSTNYLEKMEREIRVYETQNKTGNQILDAVLTNKAMICQNKEIELKFIVDGEALSFMDDMDVSALFGNMLDNAIESAEKQQEKQKRLIWLYVTREKQFVRIRTENYCDEKIHFKNGMPVTTKKDRRLHGYGMKSIKSTVEKYHGSVVAAQENNWFELKILLPAGR,not soluble
8,MKRMLVGCLAAALLFSSGWATAEAKGKQQSKPKWADKNKDGIPDDWELKYKLGLGKNVANQDKDRDGLTNRVEYNLRLNPTKTDTDKDKILDGDEDTDRDGLTNSAEVALGTKPEDADSDNDHVKDGAEKKGKAQLANVVQKLELQMKTAANQTIKIDYHWSDRHSHLHIKDQTGEVTTNDVQSLINDLQASPSLSNDEVIAKIQTLFSLDTPFRLELEWKYGSGRARKLSVKQDEDKGENAGQPGDDQDDDDQGHDQDGHDQNHDQDDDDYDGGNVGGDDGNSSE,not soluble
9,MKKNLLLLLCLFCLVNVCHAKAKDTFTVFQLNLWHGCTKVPNGDQGIIDVLDQMDADVVFLCEIRDGKQFIPHVIEELEKRGKHYYGETFDLAIGVLSKFKPDSWTKCCIVPGDEGRAMVKMVATIEGQPVSFYSCHLDYRHYQCYMPRGYNGTTWKKMDKPITDEEEVLKANRQSFRDETIRAFIQEVQSDIQQGRPIIMGGDFNEPSHLDWQADTKDLWDHNGAIIHWDCSMMLSKAGFKDAYREKFPNTVRYPGFTFPAGNKLAEEAKLEKLAWAPEADERDRIDFIYYYPLESMLSMKDSKLVGPSETVVRGKITENDSKDKILTPSCIWPSDHKGNLATFKIRKKRLEHHHHHH,not soluble
10,MGSDKIHHHHHHMKNRAGEYRTNLTGELQYRSFLPYPLPPSPPIELDEETIKLLAKANRSIGILEGMSRQIPDIDLFVSMYVRKEALLSSQIEGTQVTLDDILDPNIEENTNQNVADVINYIKASHYGSARLAELPLCNRLLKEIHEILMQDVRGGEKSPGEFRSSQNWIGPAGSTLRDARYIPPHPEDMLEAMSDLEKFINSEDELDPLIKIALIHYQFETIHPFLDGNGRIGRLLIALYLINQNLLSHETLYISYFLKRNRIEYYDRLTEVRSKGNFEQWLKFFLLAAYESAQDAIDTIERILKLHYKNVEVVKNTGKASKTVMKVFNYLESSPIIDIKKTSLALELSFNTVSNAVNKLVELGILKQTENVRRSRVFAYEEYLEILRKDT,not soluble
11,MTRIVVLGAGFAGLWAAIGAARKRDEIGAAGRDIEIRVVDRNPYHNIRVRNYEVDLSEVALPLGQLLDPIGVTHGLGEVEAIDPARREISLVTSDGEETLGYDRLVLAVGSEVTRPDIPGLADHAFDVDTYIAALRLEDHLVSLGRSVPSPGRSTVVVVGAGFTGIEVAAEMPDRLARAGITGSRCIILVDPNPTVGATIGAHARPVIETALSALDIETRLGARVASVEAAGVQLSSGEFIPAQTVIWCAGLRASRLAASLPGARDRLGRLLVDPFMRVADLPCVFAAGDVASSVVDGLHPTVMSCQFARPMGRFAGHNVVADLLGLPMLPLRIDWYVTVLDLGSWGALYTEGWDREVRTTGAAAKATKQTINRKRIYPPLNGSKDELFAAAAPTVQTPPPTYGARLEHHHHHH,soluble
12,MGSDKIHHHHHHKTEEHEKIEVLYETTLNLIHLLVEQGVIKQEVADEMIRKAEQKAKASQQQAREQGGQPPAGEPKKGEVRVTYVPEHIKKEIRDQLREEVVGQAKQERWGNVNATPEWLDRFTLEGDIRLREQADFFGDRNAPAANFQAIGQQIDNTTKDSHHRERIRMRLGINANVTRGVDLGLRLTTGNVNGPAVTGDLMGGSPTSTLQTLGTYNSKFSFVLDQAYLKLSPWDWLTVSGGRFPNPFFVGTVGNIYTGTIGKAPHTIPTAGVVHTDLLWDADVNFEGLAVNLHPWKKQERTIKPFLNAGIFPLQKINQSETVKAKDKWFYGAQAGIEWVPEGADTKIRLGAAYYDFENISGVRNPNFGDTLFNQTAPLFRQKGNSLFNIDNDGDPTTNLWALASDYKIANATLVADYSRFKPIHVIGTLDYARNVGYDQDRILARTGQDIKPEINAYQARLTVGYPVISERHQWQVLGFYRRSERDSMLDAFTDSNYLLGGTNHKGYTIQGLYGVAHNTWVGLRYMSYDNISGLPLSIDSVNLDLNARF,not soluble
13,MTLWDRLSRLVRANLNDLLRRAEDPEKIIEQALLDMKQALREAREQVAEALAEQKRLEREVESHEREAALWEEKAREALKAGREDLAREALRRKKRALDLAEGFKAQLSEHKALTERLMTQLKALEAKIDEAEARKKLLLARKKGVEAAETVRRMESRLDQHPALEAFEEMEARILAMEDRHQALEALDQADLEKEFQALSAEKEVEEDLLRLKRELGQAAAALEHHHHHH,not soluble
14,MALGETKGIILFTKDFKEKDKLVKIFTESYGKLMFFVKGAHRKNNPLLPAILPFTEAVYIGNFREEGLSFLNSSKEVQPFRNIQQDIFINAYGTYILNLVDAAIEDQHYDPNLFQFTHMALSALNEQKDPEIITNIFEIQLLERFGVRPEWHHCVACGETQGKFDYSSKYSGVLCEKHWHLDEQRYHADPRAIHFIRLFSQVSYEKVQNIQVKEETKKSIRETIDMLYDEYVGLHLKSKKFIDQMKTWENTLKIPPRKKEEK,not soluble
15,MKRFFLFILPVLLVITACKAPEEIVLPDKNLNVADRTIVYKKEPYTGKLVLPKSPRGNEGYMYVKDGHLEGNAEIKNEKDGFLLKYNINAGKFQGELLYKSGDGQLTLNVDKGVILSMQMSNDKEKTEYNFTFTDGLANGVFRHENKKNTAEIVFTDGMAKIENDGNIDVEAKFSINQNTWMITMESFVDGKSYSKTEKFLGINLETIEDIVFSSIEDYKTQK,not soluble
16,MRLILPVGLIATTLAIAPVRFDREKVFRVKPQDEKQADIIKDLAKTNELDFWYPGATHHVAAKMMVDFRVSEKESQAIQSALDQNKMHYEILIHDLQEEIEKQFDVKEDIPGRHSYAKYNNWEKIVAWTEKMMDKYPEMVSRIKIGSTVEDNPLYVLKIGEKNERRKAIFMDCGIHAREWVSPAFCQWFVYQATKTYGRNKIMTKLLDRMNFYILPVFNVDGYIWSWTKNRMWRKNRSKNQNSKCIGTDLNRNFNASWNSIPNTNDPCADNYRGSAPESEKETKAVTNFIRSHLNEIKVYITFHSYSQMLLFPYGYTSKLPPNHEDLAKVAKIGTDVLSTRYETRYIYGPIESTIYPISGSSLDWAYDLGIKHTFAFELRDKGKFGFLLPESRIKPTCRETMLAVKFIAKYILKHTS,soluble
17,MGSDKIHHHHHHMNINFENHGGNIEKEARQLGLSTENIIDASASIVPFKLPKKLNNYLINSIKNRSIRSYPDSSYFEVRNAISKWHNIEPSMILPGNGASELFTWAARDASLNGISSLPSPGFGDYQRALKCWNATYVHNPLPLSWTNNNPQSFPIEPKANVLWITNPHNPTGQLWSRSSIENLLANYKLVICDEAFISLVPGGESQSIIDLTNIYKNLIVIRSLTKFLGIAGLRVGYAVTNSDRLLKWKEIRDPWPVNTLAINATKMIMKDSKMHKKRLNKIHRWVEKEGKWLYQSLSSFSTIKPLPSTTNFQLIKSESSILNLLENLKKRGILLRDCRSFINLDEKWFRISLLKREQNIQIINTLKDYIN,not soluble
18,MTSESSGNTGGAMDEPTEKKPKEFSDLPDHVLQRIMEKVEPSDRLSVRKVNRNLRQLIDEMDPGFRSISVNISTRKGVLVSYDNGSFIHYQQVYDDCEMFGRKEKKRFFNENAVKMAINDVIRVMSHPMSNVKLFRTGIPTKPEMERSRSTGKQWKRAKILCANRGFMEVSMKHLCHFSRVVVNQARTSMQTAIEIRDILLKSTSIEYVDFCSRDGVTIDAVRVFIPETANVNQTTDYDNFTFSSSMCSLNFKKKR,not soluble
19,MGSDKIHHHHHHMTASVNVPLNSRGKLAASLPAEQLAEITALFEFRRTGYSLDAPFYTDRSIFNIDMEAIFGQHWIFAASTAELPEPGDYVTVDYGPYSLIVLRNDDGAVNVLHNVCRHRGARVLTEAAGSTGNLVCGYHSWTYSPEGNLIHASAPGETKFDKSCFGLKRAHGREVAGLIFVCIADDAPTDFDETAKIFEPYLAPHDLSKTKIAYQQNIIEEGNWKLVMENNRECYHCDGHPELACSLFPTWGLTEGLIPPHLEEVWNRNKEAQSSLEERCRRYGLPYEVVEQLDTRIAGIRISRESLDGEGESFSADGRRLSKKLLGDLPDFRLGRCSMHLQPNSWFHFLGDHVITFGVFPINEHQSLVRTTWLVADDAVEGVDYDLEKLTYTWKQTNLQDKAFVELCQQGAGSPAYEPGPYMKSEYQVEAFINWYVQRVQEHLA,not soluble
20,MSLSAPYRKQIISNAHNKPSLFSKIKTFFTQKDSARVSPRNNVANKQPRNESFNRRISSMPGGYFHSEISPDSTVNRSVVVSAVGEARNDIENKEEEYDETHETNISNAKLANFFSKKGNEPLSEIEIEGVMSLLQKSSKSMITSEGHHHHHH,soluble
